Reference: article PMC5821850, “Basal condensation of Numb and Pon complex via phase transition during Drosophila neuroblast asymmetric division” (Nature Communications, 2018)
Square brackets hold non-standard residues; d marks the D form. Ends that are not written are not given here. pT = C[C@@H](OP(=O)(O)O)[C@H](N)C(=O)O

Assays:
[1] = biological target: Drosophila Numb PTB domain (aa 65-203) (Drosophila) (UniProt P16554); experiment: ITC; Pon fragments (~0.5 mM) injected into PTB proteins (~0.05 mM); 20 °C; 50 mM Tris pH 8.0, 100 mM NaCl, 1 mM EDTA, 1 mM β-ME; one-site binding model
[2] = biological target: Drosophila Numb PTB domain (aa 65–203), P16554-1; experiment: ITC; settings: parent: 1.80 ± 0.17
Numb PTB R171A [3] = biological target: T1, Numb PTB R171A (Drosophila, UniProt P16554-1 65-203, R171A); experiment: ITC; Pon fragments (~0.5 mM) injected into PTB proteins (~0.05 mM); 20 °C; 50 mM Tris pH 8.0, 100 mM NaCl, 1 mM EDTA, 1 mM β-ME; one-site binding model
T1 sequence: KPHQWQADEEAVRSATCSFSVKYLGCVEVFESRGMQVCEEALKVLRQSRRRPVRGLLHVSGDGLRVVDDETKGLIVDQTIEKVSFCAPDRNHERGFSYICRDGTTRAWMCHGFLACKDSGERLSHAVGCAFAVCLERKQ

[4] = biological target: Drosophila Numb PTB domain (aa 65-203) (Drosophila) (UniProt P16554)
[5] = biological target: Drosophila Numb PTB domain (aa 65-203) (Drosophila) (UniProt P16554); remark: listed apart in the source
[6] = biological target: T2, Drosophila Numb PTB domain (aa 65–203) (Drosophila, UniProt P16554-1 65-203); experiment: ITC
T2 chain: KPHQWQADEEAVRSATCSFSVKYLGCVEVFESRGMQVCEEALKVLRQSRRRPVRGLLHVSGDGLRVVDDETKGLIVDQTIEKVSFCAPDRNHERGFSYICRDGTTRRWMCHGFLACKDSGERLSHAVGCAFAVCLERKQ

[7] = biological target: T2, Drosophila Numb PTB domain (aa 65–203); experiment: ITC
Numb PTB R171A [8] = biological target: T1, Numb PTB R171A; experiment: ITC
[9] = biological target: T3, Drosophila Numb PTB domain (aa 65-203) (Drosophila, UniProt P16554-1 65-203); experiment: ITC; Pon fragments (~0.5 mM) injected into PTB proteins (~0.05 mM); 20 °C; 50 mM Tris pH 8.0, 100 mM NaCl, 1 mM EDTA, 1 mM β-ME; one-site binding model; settings: both partners purified
T3 construct: Numb, Drosophila, PTB domain, residues 65-203; theoretical mass 15.7 kDa in the ultracentrifugation; also called dNumb PTB; Numb 65-203; source: E. coli BL21 (DE3), purified (Ni2+-NTA, SEC); not shown: His tag, N-terminal, cleaved
T3 sequence (looked up): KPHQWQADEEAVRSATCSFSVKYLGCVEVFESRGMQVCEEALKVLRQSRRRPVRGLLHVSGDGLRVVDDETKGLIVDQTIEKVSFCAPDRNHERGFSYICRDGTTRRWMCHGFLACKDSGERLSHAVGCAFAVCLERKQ

[10] = biological target: T4, Drosophila Numb PTB domain (aa 65–203) (Drosophila, UniProt P16554-1 65-203); experiment: AUC; sedimentation velocity, 42,000 rpm, 4 °C, interference detection, SEDFIT; Numb PTB with three molar ratios of Nak AB, or with Pon A2B2; settings: both partners purified
T4 construct: Numb PTB domain, Drosophila, Uniprot P16554-1, aa 65-203; source: E. coli BL21 (DE3), purified (Ni2+-NTA, SEC); not shown: His tag, N-terminal, cleaved
T4 sequence (looked up): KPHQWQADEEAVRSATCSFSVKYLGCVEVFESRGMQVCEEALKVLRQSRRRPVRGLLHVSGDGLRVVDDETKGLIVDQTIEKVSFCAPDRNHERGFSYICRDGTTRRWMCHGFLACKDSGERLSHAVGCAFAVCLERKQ

[11] = biological target: T4, Drosophila Numb PTB domain (aa 65–203); experiment: ITC; ITC200, 20 °C, buffer A (50 mM Tris pH 8.0, 1 mM EDTA, 1 mM β-ME, 100 mM NaCl); Pon fragments (~0.5 mM) injected into PTB proteins (~0.05 mM); one-site binding model; settings: both partners purified

Molecule Pon A2B2 N152P153A (domain or fragment) has a Kd [1] of 48.3 µM.

Pon A2B2 fragment N152A; P153A gave a Kd [2] of 49.3 µM.

With Pon 130-162 (A2B2) (domain or fragment) the Kd (Numb PTB R171A [3]) was > 100 µM and the Kd [1] was 1 µM.

Molecule Pon 157-200 (A3B3) (domain or fragment) has a Kd [1] of 12.2 µM.

In the case of Pon 110-148 (B1A2) (domain or fragment), the Kd (Numb PTB R171A [3]) is reported as > 100 µM and the Kd [1] is reported as 8.77 µM.

In the case of “Pon N-terminal fragment (aa 1–228), A1B1A2B2A3B3 (domain or fragment)”, the in vitro phase transition, sedimentation assay: share of Numb PTB and Pon A1B3 recovered from the condensed liquid phase, 1:1 mixture, 25 to 100 μM [4] is reported as 80% and the in vitro phase transition, sedimentation assay: share of the proteins in the condensed liquid phase against the molar ratio, highest at 1:3 Pon A1B3 to Numb PTB [5] is reported as > 90%.

QQKLPTNPFAVLRQPPKKKKREHACFENPGLNLE [Pon single-AB fragment with E121A in the B1 motif] was tested, and the Kd [6] was > 100 µM.

KKKKREHACFENPGLNLELPEKQFAAYEVVRSA [Pon single-AB fragment with N152,P153A in the B2 motif] showed a Kd [6] of 49.3 µM.

With KKKKREHACFENPGLNLELPEKQFNPYEVVRSA [Pon A2B2 fragment] the Kd [7] was 1.8 µM and the Kd (Numb PTB R171A [8]) was > 100 µM.

In the case of QQKLPTNPFEVLRQPPKKKKREHACFENPGLNLE [Pon B1A2 fragment], the Kd [7] is reported as 8.77 µM and the Kd (Numb PTB R171A [8]) is reported as > 100 µM.

Molecule VRSATTPAKGFVNPALNLRGSDAPASLNPFEIHRPSEASEAACN [Pon A3B3 fragment] has a Kd [7] of 12.2 µM.

With KKKKREHACFENPGLNLELPEKQFNPEEVVRSA [Pon single-AB fragment with Y154E in the B2 motif] the Kd [6] was > 100 µM.

In the case of AAVASTESCFTNAAFSST [Pon A1], the Kd [7] is reported as > 70 µM.

Work on KKKKREHACFENPGLNLELPEAQFNPYEVVRSA [Pon A2B2 K149A] yielded a Kd [6] of 5.46 µM.

For KKKKREHACFENPGLNLELPEKQFNPYEVVASA [Pon single-AB fragment with R158A in the B2 motif], the Kd [6] was > 100 µM.

KKREHACFENPGLNLELPEAQFNPYEVVRSATT (domain or fragment) [Pon A2B2 K148A] showed a Kd [9] of 0.48 ± 0.02 µM.

With KKREHACFENPGLNLELPEKQFNPEEVVRSATT (domain or fragment) [Pon A2B2 Y154E] the Kd [9] was > 100 µM.

In the case of KKREHACFENPGLNLELPEKQFNPYEVVASATT (domain or fragment) [Pon A2B2 R158A], the Kd [9] is reported as > 100 µM.

For QQQQKLPTNPFAVLRQPPKKKKREHACFENPGLNLELPE (domain or fragment) [Pon B1A2 E121A], the Kd [9] was > 100 µM.

B1: pPon peptide (peptide)
peptide: ESCFTNAAFSS[pT]PKK
notes: Pon, Drosophila; the peptide holds the A1 motif FTNAAF; the range is counted from N57 of the A1 motif; source: synthetic peptide
B1 was tested, and the Kd [9] was 11.3 ± 0.37 µM.

B2: Pon 1-116 (A1) (domain or fragment)
chain: MLETKSIAALAFTETPRKRKRETLYKNAAPPPNPQQQPPEKDAQDAAVASTESCFTNAAFSSTPKKLMVARRRLAKENSQPNPFPGLEVKSIADLAQKQQHQQHHQQQQQQQQKLP
Molecule B2 has a Kd [9] of ~70 µM.

With KKREHACFENPGLNLELPE (domain or fragment) [Pon 124-148/130-148 (A2)] the Kd [9] was > 100 µM.

B3: Pon 1-130/41-130 (A1B1) (domain or fragment)
chain: MLETKSIAALAFTETPRKRKRETLYKNAAPPPNPQQQPPEKDAQDAAVASTESCFTNAAFSSTPKKLMVARRRLAKENSQPNPFPGLEVKSIADLAQKQQHQQHHQQQQQQQQKLPTNPFEVLRQPPKKK
Molecule B3 has a Kd [9] of 18.1 ± 2.2 µM.

With QNSAKTGFSNMSFEDFPSDQEMDRLSRTIPFEVVRNEKML [Nak AB fragment (Numb-associated kinase, C-terminal A and B motifs)] the “stoichiometry N” value [10] was 1.

B4: pPon peptide (peptide)
peptide: ESCFTNAAFSS[pT]PKK
notes: Pon, Drosophila; stretch with the A1 motif FTNAAF (N57) followed by the phosphorylated threonine; limits worked out by setting the Asn of FTNAAF to N57 of the A1 motif; source: synthetic peptide (commercially synthesized)
Molecule B4 has a Kd [11] of ~11 µM.
